Usually stoichiometry N stands for a count of units in the complex or per binding partner.

Assay [1] deals with GhWRKY41-Myc fusion protein (Gossypium hirsutum). Briefly: immunoprecipitation and Western blot. On the technique in general: A western blot detects proteins with antibodies after separation by electrophoresis.
In assay [2] the target is GhWRKY41 full length as GhWRKY41-NLuc and GhWRKY41-CLuc, expressed in cotton protoplasts (Gossypium hirsutum). The assay is described as follows: split reporter.

Consider “GhWRKY41-Myc fusion protein (natural protein)”, for which the stoichiometry N in assay [1] turned out to be 2.

For the substance “GhWRKY41 full length as GhWRKY41-NLuc and GhWRKY41-CLuc, expressed in cotton protoplasts (natural protein)”, in assay [2], the fold luciferase activity (after V. dahliae supernatant) came out at 23 fold, the fold luciferase activity (after chitin solution) came out at 27 fold and the fold luciferase activity over the negative control (normal condition) was 10 fold.

The values above are taken from article PMC10106861.
